Results taken from US7745151B2, “Methods of determining binding between Nogo receptor and p75 neurotrophin receptor” (Children's Medical Center Corporation, priority 2002, dated 2010).

T1: CHO cells expressing full-length NgR (Homo sapiens, UniProt Q9BZR6)
T1 construct: expressed in transfected cells; host or cells: CHO cells
T1 sequence (Q9BZR6 27-473): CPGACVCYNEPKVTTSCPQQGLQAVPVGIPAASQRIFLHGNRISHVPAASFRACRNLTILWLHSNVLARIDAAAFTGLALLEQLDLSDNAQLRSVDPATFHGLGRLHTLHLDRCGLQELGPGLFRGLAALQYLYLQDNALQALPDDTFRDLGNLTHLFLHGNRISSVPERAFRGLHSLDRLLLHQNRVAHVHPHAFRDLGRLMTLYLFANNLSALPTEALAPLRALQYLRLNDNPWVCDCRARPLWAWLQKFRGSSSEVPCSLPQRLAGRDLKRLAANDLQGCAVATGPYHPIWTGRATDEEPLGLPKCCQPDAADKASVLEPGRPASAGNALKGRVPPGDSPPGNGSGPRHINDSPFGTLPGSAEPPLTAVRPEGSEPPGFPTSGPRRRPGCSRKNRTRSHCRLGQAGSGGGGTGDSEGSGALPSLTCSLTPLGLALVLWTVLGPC

B1: AP-p75: alkaline phosphatase (AP) fusion protein containing the extracellular domain of P75 (protein)
chain: KETCSTGLYTHSGECCKACNLGEGVAQPCGANQTVCEPCLDNVTFSDVVSATEPCKPCTECLGLQSMSAPCVEADDAVCRCAYGYYQDEETGHCEACSVCEVGSGLVFSCQDKQNTVCEECPEGTYSDEANHVDPCLPCTVCEDTERQLRECTPWADAECEEIPGRWIPRSTPPEGSDSTAPSTQEPEVPPEQDLVPSTVADMVTTVMGSSQPVVTRGTTDNLI
modifications: left off: large carriers; small tags and cut ends
B2: OM-his: myelin inhibitor protein; his-tagged OMgp (protein, UniProt P23515 25-417, looked up)
Oligodendrocyte-myelin …: ICPLQCICTERHRHVDCSGRNLSTLPSGLQENIIHLNLSYNHFTDLHNQLTQYTNLRTLDISNNRLESLPAHLPRSLWNMSAANNNIKLLDKSDTAYQWNLKYLDVSKNMLEKVVLIKNTLRSLEVLNLSSNKLWTVPTNMPSKLHIVDLSNNSLTQILPGTLINLTNLTHLYLHNNKFTFIPDQSFDQLFQLQEITLYNNRWSCDHKQNITYLLKWMMETKAHVIGTPCSTQISSLKEHNMYPTPSGFTSSLFTVSGMQTVDTINSLSVVTQPKVTKIPKQYRTKETTFGATLSKDTTFTSTDKAFVPYPEDTSTETINSHEAAAATLTIHLQDGMVTNTSLTSSTKSSPTPMTLSITSGMPNNFSEMPQQSTTLNLWREETTTNVKTPLPS
modifications: His tag
notes: his-tagged OMgp

Experiments:
[1] = target: T1, CHO cells expressing full-length NgR; assay: Cell surface binding assay of AP-p75
Excerpt: When we overexpress HA-tagged P75 and FLAG-tagged NgR into CHO cells, we find that p75 can be co-immunoprecipitated with NgR, but not with a control transmembrane protein Plexin A3. We also utilize a cell surface binding assay to better visualize the NgR/P75 interaction.
Upon expression in cerebellar granule neurons (CGNs), this truncated NgR, but not full-length NgR, blocks the inhibitory responses elicited by immobilized inhibitors.
Exemplary experimental protocols: Binding experiments: Sequence encoding the extracellular domain of rat p75 was subcloned into the expression vector AP-5 to express an AP-p75 fusion protein tagged with both a polyhistidine and a myc epitope. The resultant plasmid DNA was transfected into COS-7 cells and the secreted protein purified using nickel-Agarose resins (Qiagen). Cell surface binding with AP-p75 and other AP proteins were performed as described previously. For visualization of bound proteins, NBT and BCIP were used as AP substrates.

[2] = tested on: DRG neurons; assay: Neurite outgrowth assay, wild type versus P75 mutant neurons; format: cell-based, mice
Excerpt: We use a neurite outgrowth assay to compare the responses of neurons from wild type mice and those carrying a mutation in the P75 gene to individual inhibitors (Lee et al., Cell 1992 May 29; 69(5):737-49). Neurite outgrowth of DRG neurons from P75 (−/−) was not inhibited by MAG-Fc.

Molecule | binding of AP-p75 to NgR-expressing cells [1] | neurite outgrowth inhibition ([2]; neurons from P75 (-/-) mice) | neurite outgrowth inhibition ([2]; wild type neurons)
B1 | able to bind CHO cells expressing full-length NgR specifically | – | –
B2 | – | neither of these proteins restrict neurite outgrowth | efficiently inhibited
